{"source": "the supplement of paper PMC11246515", "assay": "total protein half-life in vivo (active degradation + dilution); higher = more stable protein", "key": {"[1]": {"details": "E. coli NCM3722 delta-clpP delta-lon delta-hslV, growth: N-lim chemostat, doubling time 6 h"}, "[2]": {"details": "E. coli NCM3722 delta-clpP, growth: N-lim chemostat, doubling time 6 h"}, "[3]": {"details": "E. coli NCM3722 delta-hslV, growth: N-lim chemostat, doubling time 6 h"}, "[4]": {"details": "E. coli NCM3722 delta-lon, growth: N-lim chemostat, doubling time 6 h"}, "[5]": {"details": "E. coli NCM3722 delta-smpB, growth: N-lim chemostat, doubling time 6 h"}, "[6]": {"details": "wild type E. coli NCM3722, growth: C-lim chemostat, doubling time 3 h"}, "[7]": {"details": "wild type E. coli NCM3722, growth: C-lim chemostat, doubling time 6 h"}, "[8]": {"details": "wild type E. coli NCM3722, growth: C-lim chemostat, doubling time 12 h"}, "[9]": {"details": "wild type E. coli NCM3722, growth: N-lim chemostat, doubling time 6 h"}, "[10]": {"details": "wild type E. coli NCM3722, growth: N-lim chemostat, doubling time 12 h"}, "[11]": {"details": "wild type E. coli NCM3722, growth: P-lim chemostat, doubling time 6 h"}, "[12]": {"details": "wild type E. coli NCM3722, growth: P-lim chemostat, doubling time 12 h"}}, "note": "± gives the standard deviation of the averaged measurements."}
{"sequence": "MQFSKMHGLGNDFMVVDAVTQNVFFSPELIRRLADRHLGVGFDQLLVVEPPYDPELDFHYRIFNADGSEVAQCGNGARCFARFVRLKGLTNKRDIRVSTANGRMVLTVTDDDLVRVNMGEPNFEPSAVPFRANKAEKTYIMRAAEQTILCGVVSMGNPHCVIQVDDVDTAAVETLGPVLESHERFPERANIGFMQVVKREHIRLRVYERGAGETQACGSGACAAVAVGIQQGLLAEEVRVELPGGRLDIAWKGPGHPLYMTGPAVHVYDGFIHL [P0A6K1]", "values": [{"measurement": "total protein half-life in vivo", "setting": "[1]", "result": "6.36 ± 1.1", "unit": "h"}, {"measurement": "total protein half-life in vivo", "setting": "[2]", "result": "6.48 ± 2.1", "unit": "h"}, {"measurement": "total protein half-life in vivo", "setting": "[3]", "result": "5.87 ± 0.47", "unit": "h"}, {"measurement": "total protein half-life in vivo", "setting": "[4]", "result": "5.47 ± 0.1", "unit": "h"}, {"measurement": "total protein half-life in vivo", "setting": "[5]", "result": "5.32 ± 0.55", "unit": "h"}, {"measurement": "total protein half-life in vivo", "setting": "[6]", "result": "3.44 ± 0.073", "unit": "h"}, {"measurement": "total protein half-life in vivo", "setting": "[7]", "result": "5.92 ± 0.45", "unit": "h"}, {"measurement": "total protein half-life in vivo", "setting": "[8]", "result": "9.56 ± 0.77", "unit": "h"}, {"measurement": "total protein half-life in vivo", "setting": "[9]", "result": "5.53 ± 0.74", "unit": "h"}, {"measurement": "total protein half-life in vivo", "setting": "[10]", "result": "9.83 ± 0.98", "unit": "h"}, {"measurement": "total protein half-life in vivo", "setting": "[11]", "result": "5.42 ± 0.38", "unit": "h"}, {"measurement": "total protein half-life in vivo", "setting": "[12]", "result": "11.859 ± 0.004", "unit": "h"}]}
{"sequence": "MQGKALQDFVIDKIDDLKGQDIIALDVQGKSSITDCMIICTGTSSRHVMSIADHVVQESRAAGLLPLGVEGENSADWIVVDLGDVIVHVMQEESRRLYELEKLWS [P0AAT6]", "values": [{"measurement": "total protein half-life in vivo", "setting": "[1]", "result": "6.28 ± 1.2", "unit": "h"}, {"measurement": "total protein half-life in vivo", "setting": "[2]", "result": "3.63 ± 1.7", "unit": "h"}, {"measurement": "total protein half-life in vivo", "setting": "[3]", "result": "2.21 ± 0.063", "unit": "h"}, {"measurement": "total protein half-life in vivo", "setting": "[4]", "result": "5.5 ± 0.84", "unit": "h"}, {"measurement": "total protein half-life in vivo", "setting": "[5]", "result": "2.65 ± 0.19", "unit": "h"}, {"measurement": "total protein half-life in vivo", "setting": "[6]", "result": "2.6 ± 0.59", "unit": "h"}, {"measurement": "total protein half-life in vivo", "setting": "[7]", "result": 3.58, "unit": "h"}, {"measurement": "total protein half-life in vivo", "setting": "[8]", "result": "> 16", "unit": "h"}, {"measurement": "total protein half-life in vivo", "setting": "[9]", "result": 2.72, "unit": "h"}, {"measurement": "total protein half-life in vivo", "setting": "[10]", "result": "3.51 ± 0.17", "unit": "h"}, {"measurement": "total protein half-life in vivo", "setting": "[11]", "result": 2.2, "unit": "h"}, {"measurement": "total protein half-life in vivo", "setting": "[12]", "result": 4.01, "unit": "h"}]}
{"sequence": "MQGTKIRLLAGGLLMMATAGYVQADALQPDPAWQQGTLSNGLQWQVLTTPQRPSDRVEIRLLVNTGSLAESTQQSGYSHAIPRIALTQSGGLDAAQARSLWQQGIDPKRPMPPVIVSYDTTLFNLSLPNNRNDLLKEALSYLANATGKLTITPETINHALQSQDMVATWPADTKEGWWRYRLKGSTLLGHDPADPLKQPVEAEKIKDFYQKWYTPDAMTLLVVGNVDARSVVDQINKTFGELKGKRETPAPVPTLSPLRAEAVSIMTDAVRQDRLSIMWDTPWQPIRESAALLRYWRADLAREALFWHVQQALSASNSKDIGLGFDCRVLYLRAQCAINIESPNDKLNSNLNLVARELAKVRDKGLPEEEFNALVAQKKLELQKLFAAYARADTDILMGQRMRSLQNQVVDIAPEQYQKLRQDFLNSLTVEMLNQDLRQQLSNDMALILLQPKGEPEFNMKALQAVWDQIMAPSTAAATTSVATDDVHPEVTDIPPAQ", "values": [{"measurement": "total protein half-life in vivo", "setting": "[1]", "result": "5.67 ± 0.23", "unit": "h"}, {"measurement": "total protein half-life in vivo", "setting": "[2]", "result": "6.56 ± 1.4", "unit": "h"}, {"measurement": "total protein half-life in vivo", "setting": "[3]", "result": "6.33 ± 0.55", "unit": "h"}, {"measurement": "total protein half-life in vivo", "setting": "[5]", "result": "6.16 ± 0.15", "unit": "h"}, {"measurement": "total protein half-life in vivo", "setting": "[6]", "result": "3.02 ± 0.35", "unit": "h"}, {"measurement": "total protein half-life in vivo", "setting": "[7]", "result": "6.42 ± 0.41", "unit": "h"}, {"measurement": "total protein half-life in vivo", "setting": "[8]", "result": "9.83 ± 0.8", "unit": "h"}, {"measurement": "total protein half-life in vivo", "setting": "[9]", "result": "6.08 ± 0.24", "unit": "h"}, {"measurement": "total protein half-life in vivo", "setting": "[10]", "result": "12.55 ± 0.063", "unit": "h"}, {"measurement": "total protein half-life in vivo", "setting": "[11]", "result": "6.3 ± 0.32", "unit": "h"}, {"measurement": "total protein half-life in vivo", "setting": "[12]", "result": "14.2 ± 0.33", "unit": "h"}]}
{"sequence": "MQHETKMENQSWLKKLARRLGPGHVVNLCFIVVLLFSTLLTWREVVVLEDAYISSQRNHLENVANALDKHLQYNVDKLIFLRNGMREALVAPLDFTSLRDAVTEFEQHRDEHAWKIELNRRRTLPVNGVSDALVSEGNLLSRENESLDNEITAALEVGYLLRLAHNSSSMVEQAMYVSRAGFYVSTQPTLFTRNVPTRYYGYVTQPWFIGHSQRENRHRAVRWFTSQPEHASNTEPQVTVSVPVDSNNYWYGVLGMSIPVRTMQQFLRNAIDKNLDGEYQLYDSKLRFLTSSNPDHPTGNIFDPRELALLAQAMEHDTRGGIRMDSRYVSWERLDHFDGVLVRVHTLSEGVRGDFGSISIALTLLWALFTTMLLISWYVIRRMVSNMYVLQSSLQWQAWHDTLTRLYNRGALFEKARPLAKLCQTHQHPFSVIQVDLDHFKAINDRFGHQAGDRVLSHAAGLISSSLRAQDVAGRVGGEEFCVILPGASLTEAAEVAERIRLKLNEKEMLIAKSTTIRISASLGVSSSEETGDYDFEQLQSLADRRLYLAKQAGRNRVFASDNA", "values": [{"measurement": "total protein half-life in vivo", "setting": "[2]", "result": "7.2 ± 0.57", "unit": "h"}, {"measurement": "total protein half-life in vivo", "setting": "[3]", "result": "6.48 ± 0.5", "unit": "h"}, {"measurement": "total protein half-life in vivo", "setting": "[5]", "result": "5.94 ± 0.3", "unit": "h"}, {"measurement": "total protein half-life in vivo", "setting": "[6]", "result": "3.34 ± 0.062", "unit": "h"}, {"measurement": "total protein half-life in vivo", "setting": "[7]", "result": "6.39 ± 0.087", "unit": "h"}, {"measurement": "total protein half-life in vivo", "setting": "[8]", "result": "12.3 ± 0.47", "unit": "h"}, {"measurement": "total protein half-life in vivo", "setting": "[9]", "result": "6.01 ± 0.53", "unit": "h"}, {"measurement": "total protein half-life in vivo", "setting": "[11]", "result": "6.56 ± 0.22", "unit": "h"}, {"measurement": "total protein half-life in vivo", "setting": "[12]", "result": "12.2 ± 0.31", "unit": "h"}]}
